Measurements taken from article PMC4475061.
pKd: −log10 of the molar value. One block for each substance: values may come before it.

Key:
[1] = target: CHMP1A (positive-control partner of the Gal4-CHMP1B constructs in the two-hybrid assay); assay: yeast two-hybrid (β-galactosidase activity); conditions: parent: est. 0.71; read off a plot
[2] = target: IST1 MIM1 peptide (residues 344–366), fluorescently labeled (human); assay: fluorescence polarisation; 250 pM Oregon Green 488-labeled IST1 peptides, twofold dilutions of ULK3 proteins; 25 mM Tris pH 7.2, 150 mM NaCl, 0.1 mg/mL BSA, 0.01% Tween-20, 1 mM DTT; 1:1 fit
[3] = target: IST1 MIMs peptide (residues 316–366), fluorescently labeled (human); assay: as above

response [1]: 0.89
Substance: CHMP1B WT fused to the Gal4 DNA-binding domain (from UniProt Q7LBR1) T178R; A181R; E184R

pKd [2]: 6.11
Substance: ULK3 MIT2 (residues 359–449) (from UniProt Q6PHR2 359-449) (domain or fragment)

pKd [3]: 6.70
Substance: ULK3(MIT)2 (residues 277–449) (from UniProt Q6PHR2 277-449) (domain or fragment)

fold reduction of binding against wild-type ULK3(MIT)2 [3]: > 100 fold
Substance: ULK3(MIT)2 M434D (from UniProt Q6PHR2 277-449) (domain or fragment)

fold reduction of binding against wild-type ULK3(MIT)2 [3]: < 2 fold
Substance: ULK3(MIT)2 V338D (from UniProt Q6PHR2 277-449) (domain or fragment)
